Assay results as given in US20240294945.

What was measured:
Test in all cases: cell_activity
[1] = molecular target: ND4 TALE-TadA* (synthetic) (UniProt P14727); conditions: A-to-G editing
[2] = molecular target: mDdCBE ND4 TALE-GSVG DddAtox (synthetic) (UniProt P14727); conditions: monomeric full-length DddAtox
[3] = molecular target: mDdCBE ND4 TALE-E1347A DddAtox (synthetic) (UniProt P14727); conditions: monomeric full-length DddAtox
[4] = tested on: ATP6 mt-DdCBE left (synthetic)
[5] = tested on: mouse ND5 silent DdCBE right (synthetic); conditions: pair, NIH3T3
[6] = tested on: 16S rDNA cp-DdCBE right (synthetic); conditions: pair, mRNA in lettuce protoplasts
[7] = tested on: ATP6 (lettuce) mt-DdCBE right (synthetic); conditions: pair, lettuce protoplasts; first printed repeat NG vs G in site
[8] = tested on: 16S rDNA cp-DdCBE left (synthetic); conditions: pair, mRNA in lettuce protoplasts

Substance: ND4 TALE target
- activity [1]: < 0.6%
- activity [2]: < 31%
- activity [3]: < 7.2%

Substance: TATTGGCATTACTATAG (double strand) [ATP6 left TALE site]
- activity [4]: 23%

Substance: TTAAAATAAAGTTATTATT (double strand) [ND5 silent right TALE site]
- activity [5]: < 19%

Substance: TGTGCGGGCCCCCGTCAA (double strand) [16S rDNA right TALE site]
- activity [6]: < 25%

Substance: GAAAAAATGAAGCCCA (double strand) [ATP6 lettuce right TALE site]
- activity [7]: 23%

Substance: GGGGAGTACGTTCGCAAG (double strand) [16S rDNA left TALE site]
- activity [8]: < 25%
